Laboratory results reported in US8748572B2, “RNase a peptides, fragments and uses thereof” (priority 2006, dated 2014).
“Also recorded” adds a separate entry of the source. Marks after values point to notes of the source that are not given here.

Experiments:
[1] = test system: chicken aortic rings; experiment: chick aortic ring assay (angiogenesis); format: cell-based; details: for blood vessel formation in aortic rings (in words) / Angiogenesis Scores: 2 μM recombinant RNase; for blood vessel formation in aortic rings (in words): ex vivo; for Angiogenesis Scores: 24 h, Mean ± SEM, 6 to 8 rings; for % change of angiogenesis score vs control: 2 μM, ([rRNase − control]×100/[control])
Excerpt: The angiogenic activity of a particular RNase A polypeptide or fragment can be assessed by known protocols, such as that described in the methods section and the following described protocol, herein referred to as “a standard angiogenesis assay.” For example, the chick aortic ring sprouting assay, described in the art, can be a standard angiogenesis assay according to the invention. In the assay, aortic arches are dissected from 13-day-old chicken embryos, cleaned free of unwanted tissue and cut into 0.8 mm slices. Each ring is transferred into center of a well of 96-well plate, and ice-cold Matrigel (Becton Dickinson, Bedford, Mass.) is added immediately to imbed the ring. After solidification of the Matrigel, human endothelial-SFM basal growth medium (Invitrogen) is added to each well. After addition of recombinant leukocyte RNase A-1 or RNase A-2 or control preparation, the rings are incubated at 37° C. for 24 h. Vessels sprouted from rings are observed under microscopy, and assessed by blinded observers.
Both chicken leukocyte RNases are structurally related to the mammalian angiogenin lineage, as discussed above and illustrated in FIG. 1. However, none of the non-mammalian ribonucleases evaluated thus far have been reported to have angiogenic activity. Here, the potential angiogenic activity of recombinant leukocyte RNases A-1 and A-2 was evaluated using the chick aortic ring assay as described in the literature. Briefly, aortic rings prepared from 13 day-old chick embryos were incubated with 2 μM recombinant leukocyte RNases (rRNases).
Table 1 details the results of the chick aortic ring assay. Specifically, vessels sprouted from aortic rings treated with 100 μl of human endothelial-SFM basal growth medium and 2 μM recombinant leukocyte RNase were observed under microscopy and assessed by blinded observers, according previously published methods. Each of the groups (named Exp. 1 and Exp. 2) were composed of 6 to 8 rings. Percent (%) change is a value that represents ([rRNase A-1 or A-2−control]×100/[control]). *p<0.05, as determined using the Student's t-test.
The chick aortic ring sprouting assay was performed as described previously with minor modifications. Aortic arches were dissected from 13-day-old chicken embryos, cleaned free of unwanted tissue and cut into 0.8 mm slices. Each ring was transferred into center of a well of 96-well plate. Ice-cold 10 μl of Matrigel (Becton Dickinson, Bedford, Mass.) were added immediately to imbed the ring. After the Matrigel was solidified, 100 μl of human endothelial-SFM basal growth medium (Invitrogen) was added to each well. After addition of recombinant leukocyte RNase A-1 or RNase A-2 or control preparation, the rings were incubated at 37° C. for 24 h. Vessels sprouted from rings were observed under microscopy, and assessed by blinded observers. Each groups composed of 6 to 8 rings.

[2] = test system: E. coli DH5α; experiment: bactericidal colony-forming assay, E. coli; format: cell-based, Escherichia coli
Experimental: (§1) FIGS. 5 A & B are graphs showing the bactericidal activity of rRNases A-1 and A-2. In panel (A) E. coli DH5α and in panel (B) S. aureus 502A were re-suspended in 100 mM sodium phosphate buffer, pH 7.4, and incubated with the indicated concentrations of chicken leukocyte RNase A-1 (open squares) and A-2 (closed circles) for 4 h at 37° C., plated on RNase-free LB agar, and grown overnight for colony counts.
RNase A polypeptides and fragments according to the invention that have bactericidal activity are particularly preferred for use in the treatment methods of the invention. The bactericidal and bacteriostatic activity of a particular RNase A polypeptides or fragments can be assessed by known protocols, such as that described in the methods section and the following described protocol, herein referred to as “a standard bacterial colony formation assay.” Bactericidal assays are well-described in the art, and are performed as described previously, and as exemplified in Examples 3-6. Briefly, an aliquot from a single bacterial colony overnight culture grown in Luria-Beitani (LB) broth is diluted 1:100 in sodium phosphate, pH 7.4, collected by centrifugation, and resuspended in sodium phosphate, pH 7.4. An aliquot of bacteria in buffer are incubated for 4 hr at 37° C. with recombinant protein or peptide at concentrations indicated, or diluent control and were then diluted 10, 100, or 1000-fold prior to plating on LB agar for overnight growth for colony counts.
Next, the bactericidal activity of chicken leukocyte RNases were examined using a colony-forming assay as previously described for eosinophil cationic protein [28]. […] E. coli was more susceptible to the bactericidal activity of leukocyte rRNase A-2 than was S. aureus, as 5 μM rRNase A-2 reduced the colony count of E. coli 10^7-fold, while reducing the colony count of S. aureus, only 100-fold. Recombinant RNase A-1 had no effect on colony number of E. coli or S. aureus concentrations up to and including […].
Bactericidal assays were performed as described previously with modifications. Briefly, 100 microliters from a single bacterial colony overnight culture grown in Luria-Bertani (LB) broth was diluted 1:100 in 100 mM sodium phosphate, pH 7.4, collected by centrifugation, and resuspended in 1 ml sodium phosphate, pH 7.4. Ten microliters of bacteria in buffer are incubated for 4 hr at 37° C. with 10 microliters recombinant protein or peptide at concentrations indicated, or diluent control and were then diluted 10, 100, or 1000-fold prior to plating on LB agar for overnight growth for colony counts. All points were determined in triplicate.

[3] = test system: S. aureus 502A; experiment: bactericidal colony-forming assay, S. aureus; format: cell-based, Staphylococcus aureus
Experimental: as §1
RNase A polypeptides and fragments according to the invention that have bactericidal activity are particularly preferred for use in the treatment methods of the invention. The bactericidal and bacteriostatic activity of a particular RNase A polypeptides or fragments can be assessed by known protocols, such as that described in the methods section and the following described protocol, herein referred to as “a standard bacterial colony formation assay.” Bactericidal assays are well-described in the art, and are performed as described previously, and as exemplified in Examples 3-6. Briefly, an aliquot from a single bacterial colony overnight culture grown in Luria-Beitani (LB) broth is diluted 1:100 in sodium phosphate, pH 7.4, collected by centrifugation, and resuspended in sodium phosphate, pH 7.4. […]
Bactericidal assays were performed as described previously with modifications. […] All points were determined in triplicate.

[4] = isoelectric point; format: physicochemical

B1: rRNase A-2: recombinant carboxy-terminal FLAG-tagged Gallus gallus leukocyte RNase A-2, SEQ ID NO: 4, GenBank DQ395276 (protein, listed as Gallus gallus)
chain: VPTYQDFLYKHMDFPKTSFPSNAAYCNVMMVRRGMTAHGRCKSFNTFVHTDPRNLNTLCINQPDQALRTTRRHFRITDCKLIRSHPTCRYSGNQFNRRVRVGCRGGLPVHLDGTSP
modifications: C-terminal FLAG tag
[1]
  blood vessel formation in aortic rings (in words): Prominent blood vessel formation; also recorded: has angiogenic activity ex vivo
[1]; Exp. 1
  Angiogenesis Scores: 0.68 ± 0.26* Arbitary Units
  % change of angiogenesis score vs control: +84%
[1]; Exp. 2
  Angiogenesis Scores: 0.60 ± 0.14* Arbitary Units
  % change of angiogenesis score vs control: +82%
[2]; 5 μM, 4 h at 37° C.
  reduction of colony count of E. coli: 10^7 fold
[2]; 5 μM, 4 hrs
  colony count of E. coli after incubation: < 100 CFU/ml
[3]; 5 μM, 4 h at 37° C.
  reduction of colony count of S. aureus: 100 fold
[4]
  isoelectric point (pI): 11.0

B2: rRNase A-1: recombinant carboxy-terminal FLAG-tagged Gallus gallus leukocyte RNase A-1, SEQ ID NO: 2, GenBank DQ395275 (protein, listed as Gallus gallus)
chain: VPTYQDFLRTHVDFPKTSFPNIAAYCNVMMVRRGINVHGRCKSLNTFVHTDPRNLNTLCINQPNRALRTTQQQLPVTDCKLIRSHPTCSYTGNQFNHRVRVGCWGGLPVHLDGTFP
modifications: C-terminal FLAG tag
[1]
  blood vessel formation in aortic rings (in words): comparable to that in the control
[1]; Exp. 1
  Angiogenesis Scores: 0.38 ± 0.13 Arbitary Units
  % change of angiogenesis score vs control: +2.7%
[1]; Exp. 2
  Angiogenesis Scores: 0.41 ± 0.06 Arbitary Units
  % change of angiogenesis score vs control: +24%
[2]; 5 μM, 4 hrs
  bactericidal activity against E. coli (in words), recombinant proteins: no impact on colony count
[2]; concentrations up to and including 5 μl %/1
  effect on colony number of E. coli: no effect
[3]; concentrations up to and including 5
  effect on colony number of S. aureus: no effect
[4]
  isoelectric point (pI): 10.2
